This is an account of results in article PMC11561172 (Nature Communications, 2024).

This data set deals with the molecule itself. Put plainly: cryo-EM structure.

B1: RNA polymerase α subunit (natural protein, Spinacia oleracea (spinach), UniProt P06505 1-335, looked up)
chain: MVREKIRVSTQTLQWKCVESRTDSKCLHYGRFILSPLMKGQADTIGIAMRRALLGEIEGTCITRAKSEKIPHEYSTILGIQESVHEILMNLKEIVLRSNLYGTCEASICVRGPRGVTAQDIILPPYVEIVDNTQHIASLTEPIDLCIGLQLERNRGYHIKAPNNFQDGSFPIDALFMPVRNVNHSIHSYGNGNEKQEILFLEIWTNGSLTPKEALYEASRNLIDLLIPFLHAEENVNLEDNQHKVSLPLFTFHNRLAEIRKNKKKIALKFIFIDQLELPPRIYNCLKKSNIHTLLDLLNNSQEDLIKMKHFRIEDVKQIFGTLEKHFVIDLKNKR
For the protein B1, the binding result is given as “binds”.
